Changes are numbered by the printed parent chain. “Also recorded” adds a separate entry of the source. Ends that are not written are not given here. GST = glutathione S-transferase
Assays:
integrin αvβ3 = target: T1, integrin αvβ3 (Homo sapiens, UniProt P05106+P06756); assay: ELISA-type binding of soluble recombinant integrin αvβ3 to immobilized NRG1 fragments; conditions: soluble αvβ3, 1 mM Mn2+, room temperature
T1 construct: Soluble recombinant integrin αvβ3 (5 μg/ml) was added to the wells; made in house
Protocol: FIG. 1. […] The isolated EGF-like domain of Wt NRG1 was immobilized to wells of 96-well titer plates. The concentrations of the coating solution are shown. Soluble recombinant integrin αvβ3 (5 μg/ml) was added to the wells in the presence of 1 mM Mn^2+ and incubated for 2 h at room temperature. After washing the wells bound αvβ3 was determined by using anti-β3 antibody and HRP-conjugated anti-mouse IgG. The data is shown as means+/−SEM of triplicate experiments. FIG. 7. […] Wt GST-NRG1 (175-222) and the 2KE mutant of GST-NRG1 (175-222) were immobilized to wells of 96-well titer plates. The concentrations of the coating solution are shown. Soluble recombinant integrin αvβ3 (5 μg/ml) was added to the wells in the presence of 1 mM Mn^2+ and incubated for 2 h at room temperature. After washing, the wells bound αvβ3 was determined by using anti-β3 antibody and HRP-conjugated anti-mouse IgG. The data are shown as means+/−SD of triplicate experiments. […] Direct αvβ3-NRG (175-222) interaction: It has been well established that the EGF-like domain of the NRGs is sufficient to specifically activate ErbB receptors and to induce cellular responses in culture. To generate GST-NRG1 EGF-like domain fusion protein, the cDNA fragment of the EGF-like domain of NRG1 was amplified by PCR and subcloned into PGEX-2T vector to generate GST-NRG1 EGF-like domain fusion protein (designated GST-NRG1 (175-222)) in E. coli BL21. The fusion protein was purified in glutathione-affinity chromatography. The affinity resin was extensively washed with 1% Triton X-114 to remove endotoxin before eluting the protein. It was tested, in the present invention, whether soluble recombinant integrin αvβ3 binds to GST-NRG1 (175-222) that is immobilized to plastic wells (ELISA-type assay). […] Cell adhesion and soluble integrin binding assays were performed as described previously (Mori, et al., 2008). NRG1α (175-241) was immobilized to wells of 96-well microtiter plate overnight at 4° C. in 0.1 M carbonate buffer, pH 2 9.4. Remaining protein binding sites were blocked by incubating with 200 μl of 0.1% BSA in PBS for 60 min at room temperature. Wells were then incubated with soluble integrin αvβ3 in 50 μl in Hepes-Tyrode's buffer supplemented with 1 mM Mn2+ at room temperature for 60 min. After rinsing the wells with the same buffer, bound integrins were determined by horseradish peroxidase (HRP)-conjugated anti-His tag mouse IgG and substrate 3,3′,5,5′-tetramethylbenzidine of HRP.

[1] = target: T2, human integrin αvβ3 on K562 erythroleukemic cells (αvβ3-K562) (human, UniProt P06756 31-1048; P05106 27-788); assay: cell adhesion to immobilised NRG1α
T2 construct: whole, on cells; also called K562 cells that express human αvβ3

[2] = target: T3, Recombinant human ErbB3 Fc chimera (R&D Systems) (human, UniProt P21860 20-643); assay: ELISA-type assay, ErbB3 Fc coated at 1 µg/ml, bound GST fusion detected with anti-GST HRP
T3 construct: Bought from R&D Systems; also called recombinant soluble ErbB3 Fc fusion protein; recombinant soluble ErbB3; Fc part of the bought chimera not given; not described

[3] = target: T2, human integrin αvβ3 on K562 …; assay: cell adhesion of αvβ3-K562 cells
[4] = target: T2, human integrin αvβ3 on K562 …; assay: cell adhesion of αvβ3-K562 cells to immobilised 3KE (175-222)
[5] = target: T4, human integrin α6β4 on CHO cells (α6β4-CHO) (human, UniProt P23229 24-1130; P16144 28-1822); assay: cell adhesion of α6β4-CHO cells to immobilised 3KE (175-222)
T4 construct: whole, on cells; also called keratinocyte integrin α6β4

[6] = system: mammary intraepithelial neoplasia-outgrowth (MIN-O); assay: Outgrowth of precancer (MIN-O) in FVB mice; assay type: in vivo; conditions: 200 ng/day/mouse intraperitoneally, 5 days a week for 4 weeks; P=0.0355
Protocol: FIG. 16. Inhibitory effect of daily intraperitoneal injection of 3KE (175-222) on the outgrowth of precancer (MIN-O) in FVB mice. MIN-O was transplanted into fat pads of FVB mice (two per mice) and 3KE (175-222) (200 ng/mouse/day) was injected 5 days a week for 4 weeks starting day 0. After 28 days, mice were sacrificed and the dimensions of tumors were measured. Since MIN-O grows as a thin layer, the two-dimensional size was calculated and the thickness was ignored. P=0.0355 by ANOVA between control and 3KE (175-222).
To study the effect of 3KE (175-222) on the premalignant cancer, transplantable mammary intraepithelial neoplasia-outgrowth (MIN-O) tissue lines, which were derived from hyperplastic mammary lesions in young Tg(MMTV-PyV-mT) females (Maglione et al. 2004), were used. The resulting lesions mimic the biological behavior, molecular biology, and histopathology of human ductal carcinoma in situ (Maglione et al. 2004). One mm^3 pieces of the 8w-BMINO tissues (Maglione et al. 2004) were transplanted to gland-cleared no. 4 mammary fat pads of 3-week-old FVB females bilaterally.

T2 sequence (P06756 31-1048, chain 1 of 2): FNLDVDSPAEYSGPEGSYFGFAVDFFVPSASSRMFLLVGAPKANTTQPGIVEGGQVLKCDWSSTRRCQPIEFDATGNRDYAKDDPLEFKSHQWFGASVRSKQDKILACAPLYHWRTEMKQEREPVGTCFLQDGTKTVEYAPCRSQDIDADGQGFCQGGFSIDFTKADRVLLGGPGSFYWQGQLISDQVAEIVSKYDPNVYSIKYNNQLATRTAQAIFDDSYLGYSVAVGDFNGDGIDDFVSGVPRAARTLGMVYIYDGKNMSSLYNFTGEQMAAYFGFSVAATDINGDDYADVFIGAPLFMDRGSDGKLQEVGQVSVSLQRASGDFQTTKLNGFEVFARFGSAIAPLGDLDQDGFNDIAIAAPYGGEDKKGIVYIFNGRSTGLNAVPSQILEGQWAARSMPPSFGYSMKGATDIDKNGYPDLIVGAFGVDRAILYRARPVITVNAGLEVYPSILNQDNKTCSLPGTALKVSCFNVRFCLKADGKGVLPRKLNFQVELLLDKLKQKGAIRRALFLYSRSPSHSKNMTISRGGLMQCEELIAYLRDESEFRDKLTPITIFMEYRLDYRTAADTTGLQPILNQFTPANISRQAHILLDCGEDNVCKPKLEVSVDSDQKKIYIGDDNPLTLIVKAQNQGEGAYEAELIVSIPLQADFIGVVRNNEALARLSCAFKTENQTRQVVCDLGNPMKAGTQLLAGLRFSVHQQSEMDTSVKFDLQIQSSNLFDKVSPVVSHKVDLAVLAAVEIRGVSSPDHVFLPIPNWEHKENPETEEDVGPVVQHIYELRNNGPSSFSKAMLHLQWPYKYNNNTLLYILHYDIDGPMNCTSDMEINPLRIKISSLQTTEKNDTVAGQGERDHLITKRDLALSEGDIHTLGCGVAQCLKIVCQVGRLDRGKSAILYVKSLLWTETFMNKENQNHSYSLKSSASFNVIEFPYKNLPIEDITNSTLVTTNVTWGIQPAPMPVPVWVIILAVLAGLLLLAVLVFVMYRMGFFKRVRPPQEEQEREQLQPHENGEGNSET
T2 sequence (P05106 27-788, chain 2 of 2): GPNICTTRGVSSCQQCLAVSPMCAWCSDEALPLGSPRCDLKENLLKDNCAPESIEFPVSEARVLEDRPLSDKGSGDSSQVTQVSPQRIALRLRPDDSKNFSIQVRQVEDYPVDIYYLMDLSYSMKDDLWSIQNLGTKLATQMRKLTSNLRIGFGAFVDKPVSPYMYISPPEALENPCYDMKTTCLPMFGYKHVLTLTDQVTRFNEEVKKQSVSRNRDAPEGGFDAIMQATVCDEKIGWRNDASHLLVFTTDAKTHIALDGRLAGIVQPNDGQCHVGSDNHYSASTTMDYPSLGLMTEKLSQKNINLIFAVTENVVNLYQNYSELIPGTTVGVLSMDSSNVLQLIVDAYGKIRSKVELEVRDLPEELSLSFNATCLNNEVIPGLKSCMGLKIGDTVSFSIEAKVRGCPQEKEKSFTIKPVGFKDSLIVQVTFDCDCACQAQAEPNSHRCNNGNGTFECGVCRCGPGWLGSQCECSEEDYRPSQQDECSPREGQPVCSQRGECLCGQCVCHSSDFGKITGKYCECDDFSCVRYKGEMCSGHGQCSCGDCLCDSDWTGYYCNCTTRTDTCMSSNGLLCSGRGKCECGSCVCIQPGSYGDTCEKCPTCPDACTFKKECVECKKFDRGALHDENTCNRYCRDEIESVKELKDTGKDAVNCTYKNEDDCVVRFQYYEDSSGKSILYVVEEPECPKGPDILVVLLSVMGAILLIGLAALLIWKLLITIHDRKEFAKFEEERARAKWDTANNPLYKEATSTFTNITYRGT
T3 sequence (P21860 20-643, change not shown): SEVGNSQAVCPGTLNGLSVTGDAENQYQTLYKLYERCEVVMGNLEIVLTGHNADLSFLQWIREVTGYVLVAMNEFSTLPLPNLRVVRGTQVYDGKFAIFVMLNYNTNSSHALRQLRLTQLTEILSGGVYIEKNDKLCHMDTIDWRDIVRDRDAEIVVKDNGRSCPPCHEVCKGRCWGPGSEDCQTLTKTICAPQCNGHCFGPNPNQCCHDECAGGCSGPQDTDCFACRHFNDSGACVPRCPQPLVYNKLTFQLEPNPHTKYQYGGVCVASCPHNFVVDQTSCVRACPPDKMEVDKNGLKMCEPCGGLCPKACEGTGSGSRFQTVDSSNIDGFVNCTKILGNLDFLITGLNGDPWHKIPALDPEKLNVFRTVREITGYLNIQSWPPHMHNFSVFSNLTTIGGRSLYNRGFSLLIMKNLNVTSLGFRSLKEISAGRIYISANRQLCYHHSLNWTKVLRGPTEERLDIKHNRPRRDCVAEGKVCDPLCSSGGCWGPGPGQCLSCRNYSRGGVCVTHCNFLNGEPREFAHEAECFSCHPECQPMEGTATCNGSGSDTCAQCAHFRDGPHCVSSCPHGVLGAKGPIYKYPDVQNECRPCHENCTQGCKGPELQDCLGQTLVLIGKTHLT
T1 sequence (P06756 31-992 limits assumed): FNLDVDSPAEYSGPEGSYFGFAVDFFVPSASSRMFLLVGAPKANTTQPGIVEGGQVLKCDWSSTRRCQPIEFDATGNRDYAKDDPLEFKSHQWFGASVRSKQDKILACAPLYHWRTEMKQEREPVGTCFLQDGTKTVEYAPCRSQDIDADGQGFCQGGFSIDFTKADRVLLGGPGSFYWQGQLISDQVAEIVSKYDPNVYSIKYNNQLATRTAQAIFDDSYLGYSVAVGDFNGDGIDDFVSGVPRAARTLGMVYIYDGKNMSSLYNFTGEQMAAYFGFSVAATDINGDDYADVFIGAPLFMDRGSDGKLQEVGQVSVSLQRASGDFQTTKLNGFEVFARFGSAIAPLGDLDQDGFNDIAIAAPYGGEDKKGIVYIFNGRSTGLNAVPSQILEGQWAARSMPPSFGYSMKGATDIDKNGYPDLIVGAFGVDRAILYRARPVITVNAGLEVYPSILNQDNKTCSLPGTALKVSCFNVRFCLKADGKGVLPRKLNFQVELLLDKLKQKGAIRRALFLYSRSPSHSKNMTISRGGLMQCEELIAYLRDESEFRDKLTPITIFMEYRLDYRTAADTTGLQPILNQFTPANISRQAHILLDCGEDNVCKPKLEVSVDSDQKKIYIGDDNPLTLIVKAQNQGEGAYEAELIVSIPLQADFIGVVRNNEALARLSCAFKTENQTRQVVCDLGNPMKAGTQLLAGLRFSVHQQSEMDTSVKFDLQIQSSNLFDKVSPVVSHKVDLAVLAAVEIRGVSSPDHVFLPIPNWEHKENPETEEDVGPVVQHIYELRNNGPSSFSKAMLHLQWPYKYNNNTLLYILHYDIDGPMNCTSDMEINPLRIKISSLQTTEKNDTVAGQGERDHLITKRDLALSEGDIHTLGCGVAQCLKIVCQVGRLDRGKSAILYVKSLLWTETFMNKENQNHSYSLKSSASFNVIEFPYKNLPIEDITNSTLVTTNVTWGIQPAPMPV
T1 sequence (P05106 27-718 limits assumed): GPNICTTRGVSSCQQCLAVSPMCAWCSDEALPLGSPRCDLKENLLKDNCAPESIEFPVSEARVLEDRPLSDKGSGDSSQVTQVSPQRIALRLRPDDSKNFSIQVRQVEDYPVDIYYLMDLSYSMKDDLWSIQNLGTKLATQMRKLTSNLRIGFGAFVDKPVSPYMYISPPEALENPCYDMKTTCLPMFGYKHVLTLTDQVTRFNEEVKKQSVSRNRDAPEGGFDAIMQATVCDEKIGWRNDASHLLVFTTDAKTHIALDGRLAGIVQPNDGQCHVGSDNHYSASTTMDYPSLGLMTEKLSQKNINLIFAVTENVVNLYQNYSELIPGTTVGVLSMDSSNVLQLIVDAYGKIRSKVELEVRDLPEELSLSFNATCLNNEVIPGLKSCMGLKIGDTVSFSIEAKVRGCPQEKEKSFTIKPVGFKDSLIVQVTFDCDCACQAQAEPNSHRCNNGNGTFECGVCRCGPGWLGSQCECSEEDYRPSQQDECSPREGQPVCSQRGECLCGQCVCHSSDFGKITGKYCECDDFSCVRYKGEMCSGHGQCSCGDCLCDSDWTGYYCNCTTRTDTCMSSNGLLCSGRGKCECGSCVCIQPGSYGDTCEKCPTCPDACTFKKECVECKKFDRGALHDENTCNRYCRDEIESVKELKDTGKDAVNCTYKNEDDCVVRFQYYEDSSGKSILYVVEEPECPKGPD

2KE (175-222): NRG1 (175-222) with Lys185/Lys187 mutated to Glu; GTSHLVKCAEEEETFCVNGGECFMVKDLSNPSRYLCKCQPGFTGARCT (SEQ ID NO:12) (integrin-binding site within human neuregulin, 2KE mutant, short version)
Binding of soluble recombinant integrin αvβ3 to the immobilized protein (integrin αvβ3): much lower affinity to αvβ3; also recorded: did not

B1: GST-NRG1α (175-241), wild type (EGF-like motif and α domain of human neuregulin 1α as GST fusion protein) (ligand)
chain: GTSHLVKCAEKEKTFCVNGGECFMVKDLSNPSRYLCKCQPGFTGARCTENVPMKVQNQEKAEELYQK
notes: not shown: glutathione S-transferase (GST) tag as encoded by the pGEX-2T vector, N-terminal
binding result [1]: binds
binding result [2]: binds

B2: 3KE (175-241) mutant of NRG1α (Lys181/Lys185/Lys187 to Glu), GST fusion protein (ligand, not shown: a dimerising Fc or GST; large carriers; small tags and cut ends)
chain: B1 chain with K7E, K11E, K13E
binding result [2]: binds

B3: GST-NRG1 (175-222), wild type EGF-like domain of human neuregulin 1 as GST fusion protein (ligand)
chain: {GST}-GTSHLVKCAEKEKTFCVNGGECFMVKDLSNPSRYLCKCQPGFTGARCT
modifications: not fully specified; cysteine pairing not given here
notes: Made in E. coli as GST fusion (pGEX-2T); not shown: glutathione S-transferase (GST) tag as encoded by the pGEX-2T vector, N-terminal
binding result [3]: binds

B4: 3KE (175-222) mutant of NRG1 (Lys181/Lys185/Lys187 to Glu), GST fusion protein (ligand, not shown: a dimerising Fc or GST; large carriers; small tags and cut ends)
chain: GTSHLVECAEEEETFCVNGGECFMVKDLSNPSRYLCKCQPGFTGARCT
binding result [4]: no binding
binding result [5]: no binding

B5: γC399tr: Control protein in the MIN-O experiment (protein)
chain: KDCQDIANKGAKQSGLYFIKPLKANQQFLVYCEIDGSGNGWTVFQKRLDGSVDFKKNWIQYKEGFGHLSPTGTTEFWLGNEKIHLISTQSAIPYALRVELEDWNGRTSTADYAMFKVGPEADKYRLTYAYFAGGDAGDAFDGFDFGDDPSDKFFTSHNGMQFSTWDNDNDKFEGNCAEQDGSGWWMNKCHAGHLNGVYYQGGTYSKASTPNGYDNGIIWATWKTRWYSMKKTTMKIIPFNRLTIGEGQQ
Outgrowth of MIN-O in FVB mice [6]: did not affect the outgrowth of MIN-O

Source: patent publication US20110212108A1, “NEUREGULIN/ERBB SIGNALING AND INTEGRIN” (THE REGENTS OF THE UNIVERSITY OF CALIFORNIA, priority 2008, published 2011)
